Assay [1] relates to Intrinsic and Common pathways of the coagulation cascade. The assay can be described thus: Activated Partial Thromboplastin Time (aPTT) in pooled normal human plasma. Type of assay: biochemical. The following applies: dose response curves, pooled normal human plasma. The text has this: (§1) This Example describes the inhibitory activity of selected antibodies, as determined by four functional plasma assays: 1) Activated Partial Thromboplastin Time (aPTT), 2) Prothrombin Time (PT), 3) Thrombin Generation Assay (TGA) triggered by ellagic acid and 4) TGA triggered by Tissue Factor. The aPTT test evaluates all clotting factors of the Intrinsic and Common pathways of the coagulation cascade by measuring time for a clot to form after the addition of calcium and ellagic acid, whereas the PT test evaluates all clotting factors of the Extrinsic and Common pathways of the coagulation cascade after the addition of calcium and Tissue Factor. The TGA triggered by ellagic acid measures the rate and amount of thrombin generated via the Intrinsic and Common pathways whereas TGA triggered by Tissue Factor measures the rate and amount of thrombin generated via the Extrinsic and Common pathways.
The aPTT was determined on Diagnostica Stago STart4 Hemostasis Analyzer in the following manner: A total of 50 ul of pooled normal human plasma was added to a cuvette at 37° C. After 1 min, 5 ul of a 2× serially diluted test article (antibody or small molecule inhibitor) in PBS was added to the cuvette and allowed to incubate for 5 min. Then 50 ul of APPT-XL Ellagic Acid (Thermo Scientific) was added and allowed to incubate for 300 seconds before 50 ul of 20 mM calcium chloride (Thermo Scientific) was added to start the reaction. The measured clot time for the test article concentration was normalized to baseline (no drug) plasma clot time and plotted against log molar concentration of the test article. The results were analyzed using nonlinear regression (4-parameter logistics) with Prism 5 software (GraphPad) to obtain doubling time concentration.

The test system of assay [2] is thrombin generated via the Intrinsic and Common pathways. The assay can be described thus: Thrombin Generation Assay (TGA) triggered by ellagic acid. Type of assay: biochemical, human. The following applies: Intrinsic Pathway Activation with Ellagic Acid.
Source text: as §1
The thrombin generation profile was determined in a Thermo Scientific Hemker Thrombinoscope in the following manner: A total of 55 ul of pooled normal human plasma was added to a well of a microplate at 37° C. Then 5 ul of a 2× serially diluted test article (antibody or small molecule inhibitor) in PBS was added to the well of the microplate and allowed to incubate for 30 min. 15 ul of APPT-XL Ellagic Acid (Thermo Scientific) was diluted in MP reagent then added to the well and allowed to incubate for 45 min. Then 15 ul of Fluo Flu Cal substrate (Diagnostica Stago) was added immediately before a continuous 90 min reading of the microplate. The measured real-time thrombin concentration values were plotted against time to yield a thrombogram profile for each concentration of the test article used.

For a further assay, the target named is T1, human FXII (Homo sapiens, UniProt P00748).
T1 construct: plasma purified human FXII and FXIIa proteins (Enzyme Research Laboratories); purchased Enzyme Research Laboratories 1212; host or cells: human plasma (said of the same vendor's proteins used as immunogen)
T1 sequence (P00748 20-615): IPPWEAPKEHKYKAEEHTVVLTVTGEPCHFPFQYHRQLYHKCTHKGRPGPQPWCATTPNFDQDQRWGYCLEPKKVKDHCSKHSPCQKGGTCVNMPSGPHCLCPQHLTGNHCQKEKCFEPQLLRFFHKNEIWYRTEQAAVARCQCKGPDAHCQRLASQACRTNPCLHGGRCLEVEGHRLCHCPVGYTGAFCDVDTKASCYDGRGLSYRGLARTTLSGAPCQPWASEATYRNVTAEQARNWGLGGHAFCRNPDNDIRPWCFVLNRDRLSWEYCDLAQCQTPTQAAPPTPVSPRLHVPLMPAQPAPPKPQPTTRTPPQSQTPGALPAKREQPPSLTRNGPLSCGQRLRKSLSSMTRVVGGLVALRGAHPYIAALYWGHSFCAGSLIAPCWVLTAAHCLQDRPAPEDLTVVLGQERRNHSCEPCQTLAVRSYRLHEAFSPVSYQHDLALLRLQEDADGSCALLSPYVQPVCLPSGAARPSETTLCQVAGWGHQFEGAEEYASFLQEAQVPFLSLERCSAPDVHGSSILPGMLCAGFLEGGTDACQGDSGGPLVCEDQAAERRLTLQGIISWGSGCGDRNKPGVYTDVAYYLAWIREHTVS
In words: Surface plasmon resonance (Biacore 4000) binding kinetics, hFXII. Here is the method: Equilibrium dissociation constant (KD) for different FXII reagents binding to purified anti-FXII monoclonal antibodies were determined using a real-time surface plasmon resonance based Biacore 4000 biosensor. All binding studies were performed in 10 mM HEPES, 300 mM NaCl, and 0.05% v/v Surfactant Tween-20, pH 7.4 (HBS-P) running buffer at 25° C. and 37° C. The Biacore CM5 sensor chip surface was first derivatized by amine coupling with the mouse anti-human Fc specific monoclonal antibody (GE Healthcare Cat #BR100839) to capture anti-FXII monoclonal antibodies. Binding studies were performed on human FXII and FXIIa (Enzyme Research Laboratories, Cat #1212 and 1212a, respectively). Different concentrations of hFXII and hFXIIa (50 nM-3.125 nM; 2-fold serial dilution) were first prepared in HBS-P running buffer and were injected over anti-human Fc captured anti-FXII monoclonal antibody surface for 3 minutes at a flow rate of 30 uL/minute, while the dissociation of monoclonal antibody bound FXII reagent was monitored for 5 minutes in HBS-P running buffer. The association rate (ka) and dissociation rate (kd) were determined by fitting the real-time binding sensorgrams to a 1:1 binding model with mass transport limitation using Scrubber 2.0c curve-fitting software. Binding dissociation equilibrium constant (KD) and dissociative half-life (t½) were calculated from the kinetic rates as: […]
(Surface plasmon resonance follows binding to a sensor surface in real time, without labels.)

B1: mAb26036: fully human anti-FXII/FXIIa monoclonal antibody, HCVR/LCVR SEQ ID NOs: 2/10 (antibody, V domains shown)
VH: QVQLVQSGAEVKKPGASVTVSCKASGYTFTSYYLHWVRQAPGQGLEWMGIINPSGGSTSYAQKFQGRVTMTRDTSTSTVYMELSSLRSEDTAVYYCARGVTTVTTYYHYYNMDVWGQGTTVTVSS
VL: DIQMTQSPSSLSASVGDRVTITCRASQGISNYLAWFQQKPGKAPKSLIYAASSLQSGVPSKFSGSGSGTDFTLTISSLQPEDFATYYCQKYNTYPLTFGGGTKVEIK
In general, Kd refers to the free concentration of one partner at which half of the binding sites on the other are occupied at equilibrium, for simple one-to-one binding. A lower Kd goes with tighter binding. Broadly, the t½ is the time needed for the level to fall by half in the phase considered. Read a high t½ as slow loss. With B1, in assay [1], the “effect on plasma aPTT (in words)” value was “prolonged the aPTT”. Also, in assay [2], the “Concentration required for ↑ lag time by 2×” value (“Concentration required … by 2×” below) is 175 nM, the “Concentration required for ↓ endogenous thrombin potential by ½” value is on record as 250 nM and the “Concentration required for ↓ thrombin peak by ½” value is reported as 250 nM. In the assay with human FXII (25° C.), binding was put at a Kd of 3.12 nM, the ka was determined as 76300 M⁻¹ s⁻¹, the kd amounted to 0.000238 s⁻¹ and the t½ is listed as 48.5 min. In the assay with human FXII (37° C.), this molecule registered a Kd of 4.62 nM, a ka of 121000 M⁻¹ s⁻¹, a kd of 0.00056 s⁻¹ and a t½ of 20.6 min.

B2: mAb26048: fully human anti-FXII/FXIIa monoclonal antibody, HCVR/LCVR SEQ ID NOs: 18/26 (antibody, V domains shown)
VH: EVQLVESGGGLVQPRGSLRLSCVASGFTFSDYGMSWVRQAPGKGLEWVSVIGGAGHGTYYADSVKGRFTISRDNSRNTLYLQMNSLRDEDTAVYYCAKKYYWNYVGGMDVWGRGTTVTVSS
VL: DIQMTQSPSSVSASVGDRVTITCRASQDINNWLAWYQQKPGKAPKLLISTASSLQSGVPSRFSGSGSGTDFTLTISSLQPEDFATYYCQQANSLPFTFGPGTKVDIK
Take B2: in assay [1], the “effect on plasma aPTT (in words)” value is “prolonged the aPTT”. Also, in assay [2], the “Concentration required … by 2×” value was found to be 150 nM, the “Concentration required for ↓ endogenous thrombin potential by ½” value is given as 250 nM and the “Concentration required for ↓ thrombin peak by ½” value is listed as 250 nM. In the assay with human FXII (25° C.), this molecule came in with a Kd of 0.879 nM, a ka of 361000 M⁻¹ s⁻¹, a kd of 0.000317 s⁻¹ and a t½ of 36.5 min. In the assay with human FXII (37° C.), this molecule yielded a Kd of 2.53 nM, a ka of 276000 M⁻¹ s⁻¹, a kd of 0.000698 s⁻¹ and a t½ of 17 min.

B3: mAb26049: fully human anti-FXII/FXIIa monoclonal antibody, HCVR/LCVR SEQ ID NOs: 34/42 (antibody, V domains shown)
VH: EVQLVESGGDLVQPGGSLRLSCAASGFTFNTYAMHWVRQAPGKGLEYISAIDTKGGSTYYADSVKGRFTISRDNSKNAQYLQMDSLRVEDMAVYYCARGFGLDVWGQGTTVTVSS
VL: DVVMTQSPLSLAVTLGQPASISCRSSQSLGYSDGNTYLNWFQQRPGQSPRRLIYKVSNRDSGVPDRFSGSGSGTDFTLKINRVETVDVGVYYCMQATHWPYTFGQGTKLEIK
Turning to B3, in assay [1], the “effect on plasma aPTT (in words)” value is “prolonged the aPTT”. In assay [2], the “Concentration required … by 2×” value stood at 200 nM, the “Concentration required for ↓ endogenous thrombin potential by ½” value was determined as 250 nM and the “Concentration required for ↓ thrombin peak by ½” value turned out to be 250 nM. In the assay with human FXII (25° C.), the affinity, expressed as Kd, was 2.74 nM; the ka stood at 90100 M⁻¹ s⁻¹; the kd was 0.000247 s⁻¹; the t½ came out at 46.7 min. In the assay with human FXII (37° C.), this molecule registered a Kd of 8.78 nM, a ka of 87000 M⁻¹ s⁻¹, a kd of 0.000764 s⁻¹ and a t½ of 15 min.

(Values after patent US12068729B2, “Anti-factor XII/XIIa antibodies and uses thereof” (Regeneron Pharmaceuticals, Inc., priority 2018, dated 2024).)
